Here are results for four molecules from PMC7617732 (Science translational medicine, 2024).

For the experiment, the target named is T1, 3FTx-L15 (recombinant long-chain three-finger α-neurotoxin variant) (Ophiophagus hannah (king cobra), long …).
T1 chain: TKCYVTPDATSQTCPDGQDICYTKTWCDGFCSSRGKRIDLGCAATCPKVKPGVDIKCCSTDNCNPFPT

B1: 95Mat2 (antibody, V domains shown)
VH: QVQLVQSGAEVKKPGSSVKVSCKASGGTFSSYAISWVRQAPGQGLEWMGGIIPIFGTANYAQKFQGRVTITADESTSTAYMELSSLRSEDTAVYYCARIPLVWYESGPYESGVFDYWGQGTLVTVSS
VL: not shown
Consider B1, for which the Kd was 0.1 nM.

B2: 95Mat4 (antibody, V domains shown)
VH: QVQLVQSGAEVKKPGSSVKVSCKASGGTFSSYAISWVRQAPGQGLEWMGGIIPIFGTANYAQKFQGRVTITADESTSTAYMELSSLRSEDTAVYYCARIPLHWYESGPYESGVFDYWGQGTLVTVSS
VL: not shown
Regarding B2, the binding result is listed as “binds”.

B3: 95Mat6 (antibody, V domains shown)
VH: QVQLVQSGAEVKKPGSSVKVSCKASGGTFSSYAISWVRQAPGQGLEWMGGIIPIFGHANYAQKFQGRVTITADESTSTAYMELSSLRSEDTAVYYCARIPLIWYESGPYESGVFDYWGQGTLVTVSS
VL: not shown
With B3, the Kd was found to be 0.103 nM.

B4: 95Mat3 (antibody, V domains shown)
VH: QVQLVQSGAEVKKPGSSVKVSCKASGGTFSSYAISWVRQAPGQGLEWMGGIIPIFGPANYAQKFQGRVTITADESTSTAYMELSSLRSEDTAVYYCARIPLVWYESGPYESGVFDYWGQGTLVTVSS
VL: not shown
Consider B4, for which the binding result is “binds”.
